Reference: a protein production outcome set (Wang et al. 2014)

Experiment: label from the status in PepcDB records
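Further: failed if final PepcDB status was selected cloned or expressed and not failed if soluble or beyond.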

Sequence: MSLAAARGGVGAGPDVRPVHGVHARMAEKMTLSHKEIPTAKASVEVICAELLRLRDRFVSAAPEITPFALTLRLLVIALKHNVILNSTWVDSGEGPQVHVHRGVHLGFGAATERGLLVPVVTDAQDKNTRELASRVAELITGAREGTLTPAELRGSTFTVSNFGALGVDDGVPVINHPEAAILGLGAIKPRPVVVGGEVVARPTMTLTCVFDHRVVDGAQVAQFMCELRDLIESPETALLDLEGHHHHHH
- protein production: not failed

Sequence: MSLADTVRMGTEGAYPPYNFINDAGEVDGFERELGDELCKRAGLTCEWVKNDWDSIIPNLVSGNYDTIIAGMSITDERDEVIDFTQNYIPPTASSYVATSDGADLSGIVAAQTATIQAGYIAESGATLVEFATPEETIAAVRNGEADAVFADRDYLVPIVAESGGELMFVGDDVPLGGGVGMGLRESDGELRGKFDAAITSMKEDGTLNTMIKKWFGEDAAVYEEGHHHHHH
- protein production: not failed

Sequence: MSLAEHKGDVMIVDDDAHVRIAVKTILSDAGFHIISADSGGQCIDLLKKGFSGVVLLDIMMPGMDGWDTIRAILDNSLEQGIAIVMLTAKNAPDAKMIGLQEYVVDYITKPFDNEDLIEKTTFFMGFVRNQTGNEGHHHHHH
- protein production: not failed

Sequence: MSLAPCGLVPSARQLEWYNREMIAFFHFGINTFEEYVNEGDGKASTAIFNPTALDCRQWMQTLKAAGIPAAILTAKHADGFCLWPSKYTDYSVKNAAWKNGKGDVVREFVDACEEYGLKAGIYLGPHDRHEHLSPLYTTERYKEYYAHQLGELMSDYGKIWETWWDGAGADELTTPVYRHWYKIVREKQPDCVIFGTKNSYPFADVRWMGNEAGEAGDPCWATTDSVAIRDEAQYYKGLNEGMLDGDAYIPAETDVSIRPSWFYHAEEDSRVKSVRELWDIYCTSVGRNSVLLLNFPPDRRGLIHSTDSLHAALLKQGIDETFSTNLLRGAKVKATNVRGAKYSPEKMLDNEKNTYFAGKDGEVKADIIFTLPKTIEFDCLMIEEVIELGHRTTKWSVEYTVDGKNWITIPEATDKQAIGHKWIVRLAPVKAKQVRLRIQDGKACPAIHTFGVYKQSPVFKEGHHHHHH
- protein production: not failed

Sequence: MSLAQGRQVIGLDIGTTSTIAILVRLPDTVVAVASRPTTLSSPHPGWAEEDPAQWWDNARAVLAELKTTAGESDWRPGGICVTGMLPAVVLLDDRGAVLRPSIQQSDGRCGDEVAELRAEVDSEAFLARTGNGVTQQLVTAKLRWIERHEPAVFGAIATVCGSYDYINMLLTGERVVDRNWALEGGFIDLASGTVEADLVALAHIPPSAVPPAHPTHRVLGAVTAEAAALTGLPTGLPVYGGAADHIASALAAGITRPGDVLLKFGGAGDIIVASATAKSDPRLYLDYHLVPGLYAPNGCMAATGSALNWLAKLLAPEAGEAAHAQLDALAAEVPAGADGLVCLPYFLGEKTPIHDPFASGTFTGLSLSHTRGHLWRALLEAVALAFRHHVAVLDDIGHAPQRFFASDGGTRSRVWMGIMADVLQRPVQLLANPLGSAVGAAWVAAIGGGDDLGWDDVTALVRTGEKITPDPAKAEVYDRLYRDFSALYATLHPFFHRSREGHHHHHH
- protein production: not failed

Sequence: MSLASNKKYTFACLLPKHLEGEYWTDVQKGIREAVTTYSDFNISANITHYDPYDYNSFVATSQAVIEEQPDGVMFAPTVPQYTKGFTDALNELGIPYIYIDSQIKDAPPLAFFGQNSHQSGYFAARMLMLLAVNDREIVIFRKIHEGVIGSNQQESREIGFRQYMQEHHPACNILELNLHADLNIEDSRMLDDFFREHPDVKHGITFNSKVYIIGEYLQQRRKSDFSLIGYDLLERNVTCLKEGTVSFLIAQQPELQGFNSIKTLCDHLIFRKEVACTNYMPIDLLTKENIDYYHSEGHHHHHH
- protein production: not failed

Sequence: MSLDDIINNMIDKLKLLVHFDRISFLLLANETLKLSHVYPKGSHSLDIGSTIPKEQSLYWSALDQRQTIFRSLTDTQDNFYEKQYLAILDLKSILVIPIYSKNKRVGVLSIGRKQQIDWSLDDLAFLEQLTDHLAVSIENVELYGQVLRSKQEWEDTFKAVD
- protein production: not failed

Sequence: MSLDKGDKAPDFALPGKTGVVKLSDKTGSVVYLDFWASWCGPCRQSFPWMNQMQAKYKAKGFQVVAVNLDAKTGDAMKFLAQVPAEFTVAFDPKGQTPRLYGVKGMPTSFLIDRNGKVLLQHVGFRPADKEALEQQILAALGGNEGHHHHHH
- protein production: not failed

Sequence: MSLDQIKIAYIGGGSQGWARSLMSDLSIDERMSGTVALYDLDFEAAQKNEVIGNHSGNGRWRYEAVSTLKKALSAADIVIISILPGSLDDMEVDVHLPERCGIYQSVGDTVGPGGIIRGLRAVPIFAEIARAIRDYAPESWVINYTNPMSVCTRVLYKVFPGIKAIGCCHEVFGTQKLLAEMVTERLGIEVPRREDIRVNVLGINHFTWITKASYRHIDLLPIFREFSAHYGESGYELEGECWRDSVFCSAHRVAFDLFETYGAIPAAGDRHLAEFLPGPYLKQPEVWKFHLTPISFRKQDRAEKRQETERLIVQQRGVAEKASGEEGVNIIAALLGLGELVTNVNMPNQGQVLNLPIQAIVETNAFITRNRVQPILSGALPKGVEMLAARHISNQEAVADAGLTKDTGLAFQAFLNDPLVQIDRSDAEQLFNDMLQCIMQSEGHHHHHH
- protein production: not failed

Sequence: MSLEESLEQLKRQYLHALPDKKKQIITLWVSLRKNWQSYMLSAVYREVHNLKGSSETFGLTETKDIVDKLELQLKNLLDAPAPTLNLIKGLDTLFHQLLQNNQHYLPAAPVVEAQMQQNPYNPSKARHEYCIAIIEDDNNVGAMITKQLHEFGFNVQHFLNFTDFIKVQYASPFDLILLDLILPDYTEDALFEAACEFEKNNTRVFVLSSRSDFDMRLLAIRANVSEYFVKPAETTLLVRKIHQWLKMSDKPPLKVLLVDDQQSMVDYFSSLLRSHGLMVRGMTKPEQVIPTLEQFEPDLFIFDLYMPGVNGLELARMIRQLDKYTSSPILVLSSDDTMQNKVSIIQAGSDDLISKQTAPSLFVTQVISRAQRGHDIRSSASRDSLTGLLNHTQILVAARHCINLAKRANSSVCIAMLDLDHFKQVNDTYGHSGGDKVLLAFAHLLQQSLRAADFMGRYGGEEFMLVIPDMPAPLVIAKVNAIRESFSNIVFVEEGAEFKVTLSGGLAFSTECHEFQECLLLADKNLYEAKRTGRNRIINTLVK
- protein production: failed

Sequence: MSLEKQIESYYQEIAQLIIDMIPEEWAEVRFYAQEDHDGWKIFFFHYLSASSDEWTKDIDIRDVIKVPQDEFMEKYNELSFCISDFRKDYAEAFGEPWMSFQMTFYASGKFNIDFYYDKNPFDTFLTRLAWQYEHFGTIPEDSFYKETLNEYLEEKAQGKRYPFLEPLKEEEGHHHHHH
- protein production: not failed

Sequence: MSLELPAEVQEMPIYREWISGILAGKIASPFWEMAQPQKNQHCLDIGCGVSFLIYPWRDWQAFFYGQDVSNVARDTLNSRGSQLNSKLFKGVELGAAHQLKYTLSYFDLAIATGFSCYFPLEYWTSVLQAVKRVLKPDGHFVFDILNAAHPQAEDWAVLETYLGAEVFLEPVTEWEKIINAAGAKVVGRQPGEFFDLYKLRLEHHHHHH
- protein production: not failed

Sequence: MSLENKFARTVLGDIPVEKLGITDCHDHFIKNGGPEVEEHIDFLMLNVDASIKEFKEFIDRGGSTIVTMDPPNVGRDVLKTLEIANAVKNLGGNVIMSTGFHKAKFYDKYSSWLAVVPTEEIVKMCVAEIEEGMDEYNYNGPVVKRSKAKAGIIKAGTGYGAIDRLELKALEVAARTSILTGCPILVHTQLGTMALEVAKHLIGFGANPDKIQISHLNKNPDKYYYEKVIKETGVTLCFDGPDRVKYYPDSLLAENIKYLVDKGLQKHITLSLDAGRILYQRNYGLTKGKQTFGLAYLFDRFLPLLKQVGVSKEAIFDILVNNPKRVLAFDEKRNFDPLKVSKEVLELKKELNLNEGHHHHHH
- protein production: not failed

Sequence: MSLERLRVAAYCRVSTDSEDQLNSYKSQVQYYTDMIKKNKEWVLADIYADEAITGTQVTKREDFQRMINDCMNGEIDMVFTKSISRFARNTLDTLKYVRMLKERNIAVYFEDEKINTLTMDGELLLVVLSSVAQQEVENISANVKKGLKMKMKRGELVGFQEGHHHHHH
- protein production: not failed
